{"source": "paper PMC5138093", "about": "(Journal of molecular biology, 2016)", "target": "the molecule itself", "experiment": "non-reducing SDS-PAGE and western blot"}
{"protein": "GST fusion of the extracellular domain of IGPR-1 (GST-E-IGPR-1) (domain or fragment, human, UniProt Q96BF3 23-150, looked up) LSVQQGPNLLQVRQGSQATLVCQVDQATAWERLRVKWTKDGAILCQPYITNGSLSLGVCGPQGRLSWQAPSHLTLQLDPVSLNHSGAYVCWAAVEIPELEEAEGNITRLFVDPDDPTQNRNRIASFPG", "values": [{"measurement": "binding result", "result": "binds"}]}
